# Measured values taken from US20260034217A1 (REGENTS OF THE UNIVERSITY OF COLORADO A BODY CORPORATE, published 2026).
# B1: CD64-BB-m22 CAR (CD64 CAR containing the m22 scFv and a 4-1BB costimulatory domain) (other)
# chain: EVQLVESGGGLVKPGGSLRLSCVASGFIFSDNYMYWVRQTPEKRLEWVATISDGGSYTYYPDSVKGRFTISRDNAKNNLYLQMSSLKSEDTAIYYCARGYYRYEGAMDYWGQGTSVTVSSGGGGSGGGGSGGGGSNIVMTQSPSSLAVSAGEKVTMSCKSSQSVLYSSNQKNYLAWYQQKPGQSPKLLIYWASTRESGVPDRFTGSGSGTDFTLTISSVQAEDLAVYYCHQYLSSWTFGGGTKLEIKTSTTTPAPRPPTPAPTIASQPLSLRPEACRPAAGGAVHTRGLDFACDIYIWAPLAGTCGVLLLSLVITLYCKRGRKKLLYIFKQPFMRPVQTTQEEDGCSCRFPEEEEGGCELSRVKFSRSADAPAYQQGQNQLYNELNLGRREEYDVLDKRRGRDPEMGGKPRRKNPQEGLYNELQKDKMAEAYSEIGMKGERRRGKGHDGLYQGLSTATKDTYDALHMQALPPR
# Target: CD64 (high affinity immunoglobulin gamma Fc receptor I) (human, UniProt P12314 16-374)
# Sequence (P12314 16-374, form in doubt): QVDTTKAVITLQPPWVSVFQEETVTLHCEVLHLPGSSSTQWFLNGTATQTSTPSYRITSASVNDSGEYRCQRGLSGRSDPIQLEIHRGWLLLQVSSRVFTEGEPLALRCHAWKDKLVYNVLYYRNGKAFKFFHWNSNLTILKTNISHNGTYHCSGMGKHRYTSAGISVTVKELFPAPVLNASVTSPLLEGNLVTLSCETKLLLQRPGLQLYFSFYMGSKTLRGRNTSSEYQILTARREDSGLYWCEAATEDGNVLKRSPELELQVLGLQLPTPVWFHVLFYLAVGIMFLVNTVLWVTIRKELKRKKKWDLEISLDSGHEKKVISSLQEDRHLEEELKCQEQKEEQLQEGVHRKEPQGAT
# Assay: cell-based or functional assay
binder,measurement,value
B1,"fold decrease in CD64+ AML cells (monocytic patient sample), flow cytometry, CAR-T with or without ven/aza",> 40 fold
same,"fold decrease in viable AML cells (mixed monocytic/primitive patient sample), flow cytometry after 48 hours with CAR-T cells alone",4.2 fold
